Results on 31 molecules are retold here after patent US20240270846A1 (published 2024).

Where a chain is given by its changes, count along the chain named. In names and notes the source's numbering stands.

To fix the notation:
B1: GLS3000 N28V one-arm antibody (H chain CE115HA000) (antibody, human IgG1, kappa, L234A L235A, N297A, name in Kabat numbering)
heavy: QVQLVESGGGVVQPGRSLRLSCAASGFTFSNAWMHWVRQAPGKGLEWVAQIKAKSNNYATYYAESVKGRFTISRDDSKNSLYLQMNSLKTEDTAVYYCRYVHYGAYYGVDAWGQGTTVTVSSASTKGPSVFPLAPSSKSTSGGTAALGCLVKDYFPEPVTVSWNSGALTSGVHTFPAVLQSSGLYSLSSVVTVPSSSLGTQTYICNVNHKPSNTKVDKKVEPKSCDKTHTCPPCPAPEAAGGPSVFLFPPKPKDTLMISRTPEVTCVVVDVSHEDPEVKFNWYVDGVEVHNAKTKPREEQYASTYRVVSVLTVLHQDWLNGKEYKCKVSNKALPAPIEKTISKAKGQPREPQVYTLPPSRCELTKNQVSLSCAVKGFYPSDIAVEWESNGQPENNYKTTPPVLDSDGSFFLVSKLTVDKSRWQQGNVFSCSVMHEALHNHYTQKSLSLSPDYKDDDDK
chain: EPKSSDKTHTCPPCPAPELLGGPSVFLFPPKPKDTLMISRTPEVTCVVVDVSHEDPEVKFNWYVDGVEVHNAKTKPREEQYNSTYRVVSVLTVLHQDWLNGKEYKCKVSNKALPAPIEKTISKAKGQPREPQVCTLPPSRDELTKNQVSLWCLVKGFYPSDIAVEWESNGQPENNYKTTPPVLDSDGSFFLYSKLTVDKSRWQQGNVFSCSVMHEALHNRYTQKSLSLSP
light: DIVMTQSPLSLPVTPGEPASISCRSSQSLVHSVRNTYLHWYQQKPGQAPRLLIYKVSNRFSGVPDRFSGSGSGTDFTLKISRVEAEDVGVYYCGQGTQVPYTFGQGTKLEIKRTVAAPSVFIFPPSDEQLKSGTASVVCLLNNFYPREAKVQWKVDNALQSGNSQESVTEQDSKDSTYSLSSTLTLSKADYEKHKVYACEVTHQGLSSPVTKSFNRGEC
notes: one-arm antibody
B2: GLS3000 N30T one-arm antibody (H chain CE115HA000) (antibody, human IgG1, kappa, L234A L235A, N297A, name in Kabat numbering)
heavy: B1 heavy
chain: B1 chain
light: B1 light with V33N, N35T
notes: one-arm antibody
B3: GLS3000 N30G one-arm antibody (H chain CE115HA000) (antibody, human IgG1, kappa, L234A L235A, N297A, name in Kabat numbering)
heavy: B1 heavy
chain: B1 chain
light: B1 light with V33N, N35G
notes: one-arm antibody
B4: GLS3000 N30I one-arm antibody (H chain CE115HA000) (antibody, human IgG1, kappa, L234A L235A, N297A, name in Kabat numbering)
heavy: B1 heavy
chain: B1 chain
light: B1 light with V33N, N35I
notes: one-arm antibody
B5: GLS3000 R24D one-arm antibody (H chain CE115HA000) (antibody, human IgG1, kappa, L234A L235A, N297A, name in Kabat numbering)
heavy: B1 heavy
chain: B1 chain
light: B1 light with R24D, V33N
notes: one-arm antibody
B6: GLS3000 N30F one-arm antibody (H chain CE115HA000) (antibody, human IgG1, kappa, L234A L235A, N297A, name in Kabat numbering)
heavy: B1 heavy
chain: B1 chain
light: B1 light with V33N, N35F
notes: one-arm antibody
B7: GLS3000 N30R one-arm antibody (H chain CE115HA000) (antibody, human IgG1, kappa, L234A L235A, N297A, name in Kabat numbering)
heavy: B1 heavy
chain: B1 chain
light: B1 light with V33N, N35R
notes: one-arm antibody
B8: GLS3000 N30V one-arm antibody (H chain CE115HA000) (antibody, human IgG1, kappa, L234A L235A, N297A, name in Kabat numbering)
heavy: B1 heavy
chain: B1 chain
light: B1 light with V33N, N35V
notes: one-arm antibody
B9: GLS3000 R24E one-arm antibody (H chain CE115HA000) (antibody, human IgG1, kappa, L234A L235A, N297A, name in Kabat numbering)
heavy: B1 heavy
chain: B1 chain
light: B1 light with R24E, V33N
notes: one-arm antibody
B10: GLS3000 N28W one-arm antibody (H chain CE115HA000) (antibody, human IgG1, kappa, L234A L235A, N297A, name in Kabat numbering)
heavy: B1 heavy
chain: B1 chain
light: B1 light with V33W
notes: one-arm antibody
B11: GLS3000 N30Y one-arm antibody (H chain CE115HA000) (antibody, human IgG1, kappa, L234A L235A, N297A, name in Kabat numbering)
heavy: B1 heavy
chain: B1 chain
light: B1 light with V33N, N35Y
notes: one-arm antibody
B12: GLS3000 R24A one-arm antibody (H chain CE115HA000) (antibody, human IgG1, kappa, L234A L235A, N297A, name in Kabat numbering)
heavy: B1 heavy
chain: B1 chain
light: B1 light with R24A, V33N
notes: one-arm antibody
B13: GLS3000 Q27L one-arm antibody (H chain CE115HA000) (antibody, human IgG1, kappa, L234A L235A, N297A, name in Kabat numbering)
heavy: B1 heavy
chain: B1 chain
light: B1 light with Q27L, V33N
notes: one-arm antibody
B14: GLS3000 N30A one-arm antibody (H chain CE115HA000) (antibody, human IgG1, kappa, L234A L235A, N297A, name in Kabat numbering)
heavy: B1 heavy
chain: B1 chain
light: B1 light with V33N, N35A
notes: one-arm antibody
B15: GLS3000 N30P one-arm antibody (H chain CE115HA000) (antibody, human IgG1, kappa, L234A L235A, N297A, name in Kabat numbering)
heavy: B1 heavy
chain: B1 chain
light: B1 light with V33N, N35P
notes: one-arm antibody
B16: GLS3000 Q27P one-arm antibody (H chain CE115HA000) (antibody, human IgG1, kappa, L234A L235A, N297A, name in Kabat numbering)
heavy: B1 heavy
chain: B1 chain
light: B1 light with Q27P, V33N
notes: one-arm antibody
B17: GLS3000 N30H one-arm antibody (H chain CE115HA000) (antibody, human IgG1, kappa, L234A L235A, N297A, name in Kabat numbering)
heavy: B1 heavy
chain: B1 chain
light: B1 light with V33N, N35H
notes: one-arm antibody
B18: GLS3000 Q27D one-arm antibody (H chain CE115HA000) (antibody, human IgG1, kappa, L234A L235A, N297A, name in Kabat numbering)
heavy: B1 heavy
chain: B1 chain
light: B1 light with Q27D, V33N
notes: one-arm antibody
B19: GLS3000 Q27R one-arm antibody (H chain CE115HA000) (antibody, human IgG1, kappa, L234A L235A, N297A, name in Kabat numbering)
heavy: B1 heavy
chain: B1 chain
light: B1 light with Q27R, V33N
notes: one-arm antibody
B20: GLS3000 Q27E one-arm antibody (H chain CE115HA000) (antibody, human IgG1, kappa, L234A L235A, N297A, name in Kabat numbering)
heavy: B1 heavy
chain: B1 chain
light: B1 light with Q27E, V33N
notes: one-arm antibody
B21: GLS3000 N30M one-arm antibody (H chain CE115HA000) (antibody, human IgG1, kappa, L234A L235A, N297A, name in Kabat numbering)
heavy: B1 heavy
chain: B1 chain
light: B1 light with V33N, N35M
notes: one-arm antibody
B22: GLS3000 N30L one-arm antibody (H chain CE115HA000) (antibody, human IgG1, kappa, L234A L235A, N297A, name in Kabat numbering)
heavy: B1 heavy
chain: B1 chain
light: B1 light with V33N, N35L
notes: one-arm antibody
B23: GLS3000 N30W one-arm antibody (H chain CE115HA000) (antibody, human IgG1, kappa, L234A L235A, N297A, name in Kabat numbering)
heavy: B1 heavy
chain: B1 chain
light: B1 light with V33N, N35W
notes: one-arm antibody
B24: GLS3000 N30D one-arm antibody (H chain CE115HA000) (antibody, human IgG1, kappa, L234A L235A, N297A, name in Kabat numbering)
heavy: B1 heavy
chain: B1 chain
light: B1 light with V33N, N35D
notes: one-arm antibody
B25: GLS3000 N53D one-arm antibody (H chain CE115HA000) (antibody, human IgG1, kappa, L234A L235A, N297A, name in Kabat numbering)
heavy: B1 heavy
chain: B1 chain
light: B1 light with V33N, N58D
notes: one-arm antibody
B26: GLS3000 N30S one-arm antibody (H chain CE115HA000) (antibody, human IgG1, kappa, L234A L235A, N297A, name in Kabat numbering)
heavy: B1 heavy
chain: B1 chain
light: B1 light with V33N, N35S
notes: one-arm antibody
B27: GLS3000 N30E one-arm antibody (H chain CE115HA000) (antibody, human IgG1, kappa, L234A L235A, N297A, name in Kabat numbering)
heavy: B1 heavy
chain: B1 chain
light: B1 light with V33N, N35E
notes: one-arm antibody
B28: GLS3000 N28Y one-arm antibody (H chain CE115HA000) (antibody, human IgG1, kappa, L234A L235A, N297A, name in Kabat numbering)
heavy: B1 heavy
chain: B1 chain
light: B1 light with V33Y
notes: one-arm antibody
B29: GLS3000 N30K one-arm antibody (H chain CE115HA000) (antibody, human IgG1, kappa, L234A L235A, N297A, name in Kabat numbering)
heavy: B1 heavy
chain: B1 chain
light: B1 light with V33N, N35K
notes: one-arm antibody
B30: GLS3000 N53A one-arm antibody (H chain CE115HA000) (antibody, human IgG1, kappa, L234A L235A, N297A, name in Kabat numbering)
heavy: B1 heavy
chain: B1 chain
light: B1 light with V33N, N58A
notes: one-arm antibody
B31: GLS3000 N30Q one-arm antibody (H chain CE115HA000) (antibody, human IgG1, kappa, L234A L235A, N297A, name in Kabat numbering)
heavy: B1 heavy
chain: B1 chain
light: B1 light with V33N, N35Q
notes: one-arm antibody

T1 sequence (P07766 23-126): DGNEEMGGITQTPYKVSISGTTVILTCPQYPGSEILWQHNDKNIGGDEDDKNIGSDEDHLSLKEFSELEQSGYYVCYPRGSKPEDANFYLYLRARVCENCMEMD

This assay concerns the target T1, CD3 epsilon homodimer protein (UniProt P07766 23-126).
T1 construct: also called CD3 (CD3 epsilon)
Briefly: SPR, CD3e homodimer on chip.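 Note: surface plasmon resonance at 25 degrees C, antibodies flowed as analyte over CD3 epsilon homodimer amine-coupled to a CM4 chip, running buffer HBS-EP+.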
In the case of B1, the “ratio of amounts bound (altered form / unaltered GLS3000 antibody)” value came out at 0.36. For B2, the “ratio of amounts bound (altered form / unaltered GLS3000 antibody)” value turned out to be 0.29. Consider B3, for which the “ratio of amounts bound (altered form / unaltered GLS3000 antibody)” value came to 0.47. For the molecule B4, the “ratio of amounts bound (altered form / unaltered GLS3000 antibody)” value came out at 0.61.

Take B5: the “ratio of amounts bound (altered form / unaltered GLS3000 antibody)” value was determined as 0.75. With B6, the “ratio of amounts bound (altered form / unaltered GLS3000 antibody)” value came to 1.1.

For the molecule B7, the “ratio of amounts bound (altered form / unaltered GLS3000 antibody)” value stood at 1.86. For the molecule B8, the “ratio of amounts bound (altered form / unaltered GLS3000 antibody)” value stood at 0.61. The figure for B9 is 0.83; for B10 it is 0.41; for B11 it is 1.04. Next, B12: 0.86.

As for B13, the “ratio of amounts bound (altered form / unaltered GLS3000 antibody)” value amounted to 0.92. For B14, the “ratio of amounts bound (altered form / unaltered GLS3000 antibody)” value worked out at 0.5. Next, B15: 0.31; B16: 0.29; B17: 0.98. As to B18, the “ratio of amounts bound (altered form / unaltered GLS3000 antibody)” value was determined as 0.85. On to B19, for which the “ratio of amounts bound (altered form / unaltered GLS3000 antibody)” value came out at 1.19. The figure for B20 is 0.88; for B21 it is 0.8; for B22 it is 0.7.

Turning to B23, the “ratio of amounts bound (altered form / unaltered GLS3000 antibody)” value came to 0.99.

Consider B24, for which the “ratio of amounts bound (altered form / unaltered GLS3000 antibody)” value came out at 0.34. The figure for B25 is 0.34. Next, B26: 0.29; B27: 0.44. With B28, the “ratio of amounts bound (altered form / unaltered GLS3000 antibody)” value worked out at 0.26. Next, B29: 1.65; B30: 0.61; B31: 0.87.
